The source of these data is patent US9512196B2, “Short-form human MD-2 as a negative regulator of toll-like receptor 4 signaling” (Cedars-Sinai Medical Center, priority 2008, dated 2016).

The target in test [1] is T1, TLR4 (Homo sapiens, UniProt O00206).
T1 construct: expressed in transfected cells; host or cells: HEK293
Briefly: IL-8 secretion by HEK293 TLR4 reporter cells after LPS. Format: cell-based. As to the method:
(A) HEK-293 cells stably transfected with TLR4 and a NF-κB reporter gene were treated with supernatants containing either MD-2 or MD-2s as described in the examples herein. Cells were left untreated or stimulated with LPS for 24 h. Mean relative stimulation of luciferase activity±S.D. for a representative experiment, each performed in triplicate, is shown. (B) HEK-293 cells stably transfected with TLR4 and a NF-κB reporter gene were transiently transfected with plasmids encoding for either MD-2, MD-2s or CD14 as shown. 24 h later, cells were left untreated or stimulated with LPS (250 ng/ml) for 6 h. Mean relative stimulation of luciferase activity±SD for a representative experiment, each performed in triplicate, is shown. (C) and (D) Supernatants were also collected and measured for IL-8 secretion.
The requirement for MD-2s in LPS mediated NF-κB activation was assessed. It has been shown that the soluble form of wild-type MD-2 confers LPS responsiveness to cells expressing TLR4; therefore, it was investigated if soluble MD-2s was also bioactive. Culture supernatants were obtained from HEK293 cells transiently expressing control vector, MD-2, or MD-2s, and incubated with HEK293 cells stably transfected with TLR4 and an NF-κB-dependent luciferase reporter gene. […]

For test [2], the target named is T1, TLR4. As to the kind of experiment: Co-immunoprecipitation with Flag-tagged TLR4 in HEK293 cells. Format: binding. The note with it: Myc-tagged protein, anti-Flag co-immunoprecipitation. As for the experimental part:
(§1) (A) Cells stably expressing CFP-tagged TLR4 were transiently transfected with plasmids encoding wild-type MD-2 (upper panels) or MD-2s (lower panels). 24 h later, cells were incubated with an anti-Myc antibody and cross-liked with Alexa 647-conjugated anti-mouse polyclonal secondary antibody. (B) HEK293 cells were transiently transfected with a plasmid encoding for Flag-tagged TLR4 (lane 2) and cotransfected with either a Myc-tagged MD-2 (lane 3) or a Myc-tagged MD-2s (lanes 1 and 4) expressing plasmid. Co-immunoprecipitation experiments were then performed using an anti-Flag antibody (lanes 2-4) or an IgG isotype control antibody (lane 1). Samples were fractionated by SDS-PAGE and immunoblotting with an anti-Myc antibody was performed. Experiment shown is representative of 4 separate experiments.
HEK 293 cells were seeded into 100 mm dishes (1.5×10^6) 24 h prior to transfection. Transfections were performed according to the manufacturer's instructions using lipofectamine. […] For immunoblotting, primary antibodies were detected using horseradish peroxidase-conjugated secondary antibodies, followed by enhanced chemiluminescence (Amersham Biosciences).
To address this possibility, co-localization studies to examine the cellular distribution of MD-2s with respect to TLR4 were performed. […] Next whether MD-2s is physically associated with TLR4 was assessed. […]

For test [3], the target named is T1, TLR4. Briefly: Confocal co-localization with CFP-tagged TLR4 in HEK293 cells. Format: cell-based. The note with it: confocal analysis, anti-Myc staining. As to the method:
as §1
To address this possibility, co-localization studies to examine the cellular distribution of MD-2s with respect to TLR4 were performed. HEK293 cells stably expressing TLR4CFP were subsequently transiently transfected with a plasmid encoding either MD-2 (FIG. 4A, upper panel) or MD-2s (FIG. 4A, lower panel) and stained with an anti-Myc antibody. […] Next whether MD-2s is physically associated with TLR4 was assessed. […]

T1 sequence (O00206 24-839): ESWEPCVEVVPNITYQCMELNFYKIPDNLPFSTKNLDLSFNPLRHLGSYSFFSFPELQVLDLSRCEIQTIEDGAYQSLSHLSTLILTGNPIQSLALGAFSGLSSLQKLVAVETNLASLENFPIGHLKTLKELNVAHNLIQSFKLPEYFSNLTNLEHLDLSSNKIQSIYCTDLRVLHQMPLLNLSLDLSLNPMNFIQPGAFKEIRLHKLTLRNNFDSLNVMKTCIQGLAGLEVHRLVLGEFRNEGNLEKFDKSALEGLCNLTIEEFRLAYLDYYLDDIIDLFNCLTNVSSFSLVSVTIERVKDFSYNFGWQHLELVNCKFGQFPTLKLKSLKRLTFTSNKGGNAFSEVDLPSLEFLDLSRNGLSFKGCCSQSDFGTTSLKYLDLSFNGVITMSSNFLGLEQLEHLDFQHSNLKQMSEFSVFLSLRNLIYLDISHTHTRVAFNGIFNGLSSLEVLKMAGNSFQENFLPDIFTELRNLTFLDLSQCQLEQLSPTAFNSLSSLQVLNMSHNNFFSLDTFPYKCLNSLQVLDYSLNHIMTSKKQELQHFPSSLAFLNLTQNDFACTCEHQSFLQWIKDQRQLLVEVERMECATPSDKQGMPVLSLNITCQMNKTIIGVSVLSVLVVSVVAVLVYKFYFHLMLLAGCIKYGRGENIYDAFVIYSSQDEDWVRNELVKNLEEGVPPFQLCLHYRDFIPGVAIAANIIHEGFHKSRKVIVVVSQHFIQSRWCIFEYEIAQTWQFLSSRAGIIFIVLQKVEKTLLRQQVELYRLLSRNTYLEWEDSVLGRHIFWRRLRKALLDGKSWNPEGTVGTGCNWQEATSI

B1: MD-2s: alternatively spliced isoform of human MD-2 lacking exon 2, with D38G substitution; expressed and secreted protein sequences in Table 1 (protein, listed as Homo sapiens)
chain 1: MLPFLFFSTLFSSIFTEAQKQYWVCNSSDASISYTYCGRDLKQLYFNLYITVNTMNLPKRKEVICRGSDDDYSFCRALKGETVNTTISFSFKGIKFSKGKYKCVVEAISGSPEEMLFCLEFVILHQPNSN
chain 2: EAQKQYWVCNSSDASISYTYCGRDLKQLYFNLYITVNTMNLPKRKEVICRGSDDDYSFCRALKGETVNTTISFSFKGIKFSKGKYKCVVEAISGSPEEMLFCLEFVILHQPNSN
B1: the “LPS-dependent IL-8 secretion conferred by soluble protein” value with TLR4 [1] (culture supernatants added to HEK293 TLR4 reporter cells) is given as “could not confer LPS responsiveness”. Also, the “LPS-mediated IL-8 secretion on transient expression” value with TLR4 [1] (plasmid transfected with CD14 into HEK293 TLR4/NF-κB reporter cells) is given as “unable to induce”. For the same molecule, the “Interaction with TLR4” value with TLR4 [2] is “direct interaction between MD-2s and TLR4 was observed”. Besides, in the test with TLR4 [3], the “Cellular distribution with respect to TLR4” value is on record as “same cellular distribution”.
